# T1: rHuman Erythropoietin R/Fc Chimera, CF (R&D Systems Cat#963-ER) (human, UniProt P19235 25-250)
# T1 construct: Bought reagent; also called EPO R; EPO R/Fc; Fc part of the bought chimera not given
# T1 sequence (looked up): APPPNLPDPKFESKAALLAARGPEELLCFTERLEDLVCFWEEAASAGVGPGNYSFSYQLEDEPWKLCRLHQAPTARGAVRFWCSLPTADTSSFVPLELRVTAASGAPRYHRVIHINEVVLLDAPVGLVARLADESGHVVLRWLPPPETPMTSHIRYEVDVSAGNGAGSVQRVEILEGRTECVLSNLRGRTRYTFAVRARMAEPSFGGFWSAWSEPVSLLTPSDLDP
# Assays:
# [1] = molecular target: T2, rHuman P-Cadherin/Fc Chimera, CF (R&D Systems Cat#861-PC) (human, UniProt P22223 108-654); assay: ECL (MSD) multispot binding assay, antigen spotted on plate, 20 nM Fab;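 note: purified Fab incubated 1 h at 20 °C on antigen-spotted plate, bound Fab revealed with TAG detection antibody, ECL read, antigen signal divided by same-well blank, ratio ≥4 counted as hit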
# T2 construct: Bought reagent; Fc part of the bought chimera not given
# [2] = molecular target: T3, rHuman ErbB2/Fc Chimera, CF (R&D Systems Cat#1129-ER) (human, UniProt P04626 23-652); assay: as above
# T3 construct: Bought reagent; also called human epidermal growth factor 2 receptor; Fc part of the bought chimera not given
# [3] = molecular target: T4, rHuman IGF-1 sR, CF (R&D Systems Cat#391-GR) (human, UniProt P08069 31-932); assay: as above
# T4 construct: Bought soluble receptor; also called insulin-like growth factor-1 soluble receptor
# [4] = molecular target: T5, rHuman CD44/Fc Chimera, CF (R&D Systems Cat#3660-CD) (human, UniProt P16070 21-220); assay: as above
# T5 construct: Bought reagent; Fc part of the bought chimera not given
# [5] = molecular target: T1, rHuman Erythropoietin R/Fc Chimera, CF …; assay: as above
# [6] = molecular target: T6, rHuman EGF R/Fc Chimera, CF (R&D Systems Cat#344-ER) (human, UniProt P00533 25-645); assay: as above
# T6 construct: Bought reagent; also called epidermal growth factor receptor; Fc part of the bought chimera not given
# [7] = molecular target: T7, Recombinant Human DLL4 (R&D Systems Cat#1506-D4/CF) (human, UniProt Q9NR61 27-524); assay: as above
# T7 construct: Bought recombinant protein; also called delta-like protein 4; rHuman DLL4
# [8] = molecular target: T8, rHuman Notch-1/Fc Chimera, CF (R&D Systems Cat#3647-TK) (human, UniProt P46531 19-526); assay: as above
# T8 construct: Bought reagent; Fc part of the bought chimera not given
# [9] = molecular target: T9, Recombinant Human DLL4 (R&D Systems Cat#1506-D4/CF) (human, UniProt Q9NR61 27-529); assay: surface plasmon resonance, Fab against recombinant human DLL4; standard deviation in parentheses
# T9 construct: Bought recombinant protein; also called rHuman DLL4; delta-like protein 4
# [10] = molecular target: T9, Recombinant Human DLL4 (R&D Systems …); assay: 96-well plate ECL (MSD) assay, DLL4 coated on plate, Fab at 0.04 µM; ECL signal on DLL4 over signal on blank well
# [11] = molecular target: T10, Recombinant Human DLL4 (delta-like protein 4) (human, UniProt Q9NR61 27-524); assay: ECL (MSD) multispot binding assay, immobilized DLL4, 10 nM Fab, signal over blank
# T10 construct: Bought recombinant protein (R&D Systems Cat#1506-D4/CF); also called rHuman DLL4; Delta-like 4
# [12] = molecular target: T10, Recombinant Human DLL4 (delta-like …); assay: ELISA on plate-coated DLL4, absorbance at 450 nm, signal minus noise
Binder,ECL multispot value [1],ECL multispot value [2],ECL multispot value [3],ECL multispot value [4],ECL multispot value [5],ECL multispot value [6],ECL multispot value [7],ECL multispot value [8],Kd [9] [nM],koff [9] [s⁻¹],kon [9] [M⁻¹ s⁻¹],Signal/Noise [10],Signal/Blank [10 nM Fab] [11],ELISA (Signal-Noise) [12]
"Fab VH3-23_IGHD2-21*01>3_IGHJ6*01 H100E/S108P/Y113G Y114I & V2-13_IGLJ2*01 (Fab, V domains shown, Tested as Fab made in E. coli (VH-CH1 with His and Flag tags; lambda CL); also called EPG Y114I) VH: not shown VL: SSELTQDPAVSVALGQTVRITCQGDSLRSYYASWYQQKPGQAPVLVIYGKNNRPSGIPDRFSGSSSGNTASLTITGAQAEDEADYYCNSRDSSGNHLVVFGGGTKLTVL",22.6,11.4,1.4,1.8,162,7.1,2.4,2.6,–,–,–,–,–,–
"Fab VH3-23_IGHD2-21*01>3_IGHJ6*01 H100E/S108P/Y113G Y112G & V2-13_IGLJ2*01 (Fab, V domains shown, Tested as Fab made in E. coli (VH-CH1 with His and Flag tags; lambda CL); also called EPG Y112G) VH: not shown VL: SSELTQDPAVSVALGQTVRITCQGDSLRSYYASWYQQKPGQAPVLVIYGKNNRPSGIPDRFSGSSSGNTASLTITGAQAEDEADYYCNSRDSSGNHLVVFGGGTKLTVL",2.3,1.4,1,1.2,7.9,1.7,1.3,2.1,–,–,–,–,–,–
"Fab VH3-23_IGHD2-21*01>3_IGHJ6*01 H100E/S108P/Y113G Y114E & V2-13_IGLJ2*01 (Fab, V domains shown, Tested as Fab made in E. coli (VH-CH1 with His and Flag tags; lambda CL); also called EPG Y114E) VH: not shown VL: SSELTQDPAVSVALGQTVRITCQGDSLRSYYASWYQQKPGQAPVLVIYGKNNRPSGIPDRFSGSSSGNTASLTITGAQAEDEADYYCNSRDSSGNHLVVFGGGTKLTVL",13.9,7.4,1.5,1.5,69.2,6.8,2.2,–,–,–,–,–,–,–
"Fab VH1-46_IGHD6-6*01_IGHJ1*01 & L6_IGKJ1*01 (Fab, V domains shown, Germline Fab made in E. coli: VH in Plasmid A (CH1, His6 and Flag tags), kappa VL in Plasmid C (kappa CL); also called parental; wildtype) VH: QVQLVQSGAEVKKPGASVKVSCKASGYTFTSYYMHWVRQAPGQGLEWMGIINPSGGSTSYAQKFQGRVTMTRDTSTSTVYMELSSLRSEDTAVYYCAREEYSSSSAEYFQHWGQGTLVTVSS VL: not shown",–,–,–,–,–,–,–,–,730,0.101,163000,3.1,–,–
"Fab VH1-46_IGHD6-6*01_IGHJ1*01 S102A/S103P/S104F/H111F S84G & L6_IGKJ1*01 (Fab, V domains shown, Tested as Fab expressed in E. coli; also called APFF S84G) VH: QVQLVQSGAEVKKPGASVKVSCKASGYTFTSYYMHWVRQAPGQGLEWMGIINPSGGSTSYAQKFQGRVTMTRDTSTSTVYMELGSLRSEDTAVYYCAREEYAPFSAEYFQFWGQGTLVTVSS VL: not shown",–,–,–,–,–,–,–,–,–,–,–,–,346,0.53
"Fab VH1-46_IGHD6-6*01_IGHJ1*01 S102A & L6_IGKJ1*01 (Fab, V domains shown, Heavy chain CDR3 alanine mutant of the parental Fab; Fab format as the parent (CH1 with His6/Flag tags, kappa CL)) VH: QVQLVQSGAEVKKPGASVKVSCKASGYTFTSYYMHWVRQAPGQGLEWMGIINPSGGSTSYAQKFQGRVTMTRDTSTSTVYMELSSLRSEDTAVYYCAREEYASSSAEYFQHWGQGTLVTVSS VL: not shown",–,–,–,–,–,–,–,–,–,–,–,5.6,–,–
"Fab VH1-46_IGHD6-6*01_IGHJ1*01 E100A & L6_IGKJ1*01 (Fab, V domains shown, Heavy chain CDR3 alanine mutant of the parental Fab; Fab format as the parent (CH1 with His6/Flag tags, kappa CL)) VH: QVQLVQSGAEVKKPGASVKVSCKASGYTFTSYYMHWVRQAPGQGLEWMGIINPSGGSTSYAQKFQGRVTMTRDTSTSTVYMELSSLRSEDTAVYYCAREAYSSSSAEYFQHWGQGTLVTVSS VL: not shown",–,–,–,–,–,–,–,–,–,–,–,0.9,–,–

# Next, values leading:
ECL multispot value [1],ECL multispot value [2],ECL multispot value [3],ECL multispot value [4],ECL multispot value [5],ECL multispot value [6],ECL multispot value [7],ECL multispot value [8],Kd [9] [nM],koff [9] [s⁻¹],kon [9] [M⁻¹ s⁻¹],Signal/Noise [10],Signal/Blank [10 nM Fab] [11],ELISA (Signal-Noise) [12],Binder
5.9,–,1.2,1.2,35,2.6,1.6,2,–,–,–,–,–,–,"Fab VH3-23_IGHD2-21*01>3_IGHJ6*01 H100E/S108P/Y113G Y114N & V2-13_IGLJ2*01 (Fab, V domains shown, Tested as Fab made in E. coli (VH-CH1 with His and Flag tags; lambda CL); also called EPG Y114N) VH: not shown VL: SSELTQDPAVSVALGQTVRITCQGDSLRSYYASWYQQKPGQAPVLVIYGKNNRPSGIPDRFSGSSSGNTASLTITGAQAEDEADYYCNSRDSSGNHLVVFGGGTKLTVL"
15.8,8.7,1.3,1.4,68.5,5,2.2,2.9,–,–,–,–,–,–,"Fab VH3-23_IGHD2-21*01>3_IGHJ6*01 H100E/S108P/Y113G Y114S & V2-13_IGLJ2*01 (Fab, V domains shown, Tested as Fab made in E. coli (VH-CH1 with His and Flag tags; lambda CL); also called EPG Y114S) VH: not shown VL: SSELTQDPAVSVALGQTVRITCQGDSLRSYYASWYQQKPGQAPVLVIYGKNNRPSGIPDRFSGSSSGNTASLTITGAQAEDEADYYCNSRDSSGNHLVVFGGGTKLTVL"
16.7,9.3,1.1,1.6,–,6.6,1.9,2.2,–,–,–,–,–,–,"Fab VH3-23_IGHD2-21*01>3_IGHJ6*01 H100E/S108P/Y113G Y114W & V2-13_IGLJ2*01 (Fab, V domains shown, Tested as Fab made in E. coli (VH-CH1 with His and Flag tags; lambda CL); also called EPG Y114W) VH: not shown VL: SSELTQDPAVSVALGQTVRITCQGDSLRSYYASWYQQKPGQAPVLVIYGKNNRPSGIPDRFSGSSSGNTASLTITGAQAEDEADYYCNSRDSSGNHLVVFGGGTKLTVL"

# From patent US20120316071A1 (published 2012)
